Assays:
[1] = biological target: pertactin ectodomain (Prn-E) (Bordetella (species not stated)); assay: static light scattering
[2] = biological target: pertactin ectodomain (Prn-E) (Bordetella (species not stated)); assay: isothermal titration calorimetry (ITC)

Question: What does the source list for “Mtd-P1 (major tropism determinant variant of Bordetella bacteriophage BPP-1) (from UniProt Q775D6 1-381)”?
Answer: stoichiometry of association between Mtd and Prn-E (Mtd monomers per Prn-E (ratio 3:1)) [1]: 3; Kd [2]: 3000 nM

— patent publication US7749694
